Measurements: article PMC406421 (Nuclear Receptor, 2004)

Experiments:
[1] = target: GAL4-DBD/DRIP205 receptor interaction domain fusion protein (human) (UniProt Q15648); assay: two-hybrid
[2] = target: GAL4-DBD/DRIP205 receptor interaction domain fusion protein (human, UniProt Q15648 527-774); assay: two-hybrid
Chain of GAL4-DBD/DRIP205 receptor interaction domain fusion protein (Q15648 527-774): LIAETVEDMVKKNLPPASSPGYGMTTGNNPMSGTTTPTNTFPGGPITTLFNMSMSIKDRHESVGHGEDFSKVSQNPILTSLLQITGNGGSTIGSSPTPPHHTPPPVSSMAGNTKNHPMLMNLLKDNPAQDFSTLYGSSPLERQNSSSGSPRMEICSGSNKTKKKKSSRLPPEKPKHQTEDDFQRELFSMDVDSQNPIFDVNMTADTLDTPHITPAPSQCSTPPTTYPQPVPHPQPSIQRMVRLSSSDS

Chain of VP16-AD/CAR-LBD fusion protein of CAR(SV2) (Q14994 whole entry, the tested form may be a part): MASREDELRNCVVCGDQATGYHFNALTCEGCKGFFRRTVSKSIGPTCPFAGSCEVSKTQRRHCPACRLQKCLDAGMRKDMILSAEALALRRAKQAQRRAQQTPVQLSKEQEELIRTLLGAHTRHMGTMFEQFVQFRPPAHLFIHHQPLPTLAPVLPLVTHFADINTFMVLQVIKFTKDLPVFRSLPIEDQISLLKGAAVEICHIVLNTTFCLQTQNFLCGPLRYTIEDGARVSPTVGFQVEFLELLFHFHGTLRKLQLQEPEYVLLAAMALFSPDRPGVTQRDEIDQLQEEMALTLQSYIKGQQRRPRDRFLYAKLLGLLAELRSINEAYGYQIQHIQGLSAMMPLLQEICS
Chain of GAL4-DBD/DRIP205 receptor interaction domain fusion protein (human) (Q15648 527-774): as the sequence (Q15648 527-774) above

| fold induction of the interaction by CITCO over Me2SO (two-hybrid reporter) [1] | fold induction of the interaction by CITCO over Me2SO (two-hybrid reporter) [2] | Molecule |
| --- | --- | --- |
| 100 fold |  | VP16-AD/CAR-LBD fusion protein of CAR(SV2) (from UniProt Q14994-2 105-348) (domain or fragment) |
|  | 2 fold | VP16-AD/CAR-LBD fusion protein of reference CAR(SV1) (domain or fragment, human, UniProt Q14994-2 105-348, looked up) QLSKEQEELIRTLLGAHTRHMGTMFEQFVQFRPPAHLFIHHQPLPTLAPVLPLVTHFADINTFMVLQVIKFTKDLPVFRSLPIEDQISLLKGAAVEICHIVLNTTFCLQTQNFLCGPLRYTIEDGARVGFQVEFLELLFHFHGTLRKLQLQEPEYVLLAAMALFSPDRPGVTQRDEIDQLQEEMALTLQSYIKGQQRRPRDRFLYAKLLGLLAELRSINEAYGYQIQHIQGLSAMMPLLQEICS |
